Assay results reported in patent publication US20060024667A1 (PRIMEX CLINICAL LABORATORIES, published 2006).
Positions of bridges follow the written chain, without caps; N, C: chain ends. No end group written: not given here.

B1: HCDR3-derived synthetic peptide N44 (peptide)
peptide: ASVRGWYVRSVFDPA
notes: HCDR3 of clone b4.4 with an alanine at each end, without cysteines; linear; also called linear N44; linear peptide N44
B2: scrambled cyclic peptide ScrC44 (peptide)
peptide: CADWRYRSVFGPVSVAC
modifications: disulfide 1-17 (inferred); not fully specified
notes: Negative control; also called Scr44; cyclic peptide with scrambled amino acids

Molecular target: T1, biotinylated Aβ42 (human, UniProt P05067 672-713, biotinylated (site not stated))
T1 construct: domain: amyloid-beta peptide (Aβ42); Added in solution (PBS/1% BSA) to plates coated with the HCDR3-derived peptides; detected with avidin-peroxidase; also called Aβ42 (biotinylated)
T1 sequence (P05067 672-713 limits assumed): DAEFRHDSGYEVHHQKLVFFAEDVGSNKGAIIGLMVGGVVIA
Assay: ELISA, peptide coated at 10 µg/ml, biotinylated Aβ42 in solution

| Binder | binding result |
| --- | --- |
| IWGCSGKLICTTAVP (bridge 4-10 (inferred); also: cyclic via two Cys, bond not described, Negative control) [non-related cyclic peptide GM15] | no binding |
| B1 | no binding |
| B2 | no binding |
